# Assay results: article PMC10764275
# Molecular target: Human ACE2 with Fc tag (human) (UniProt Q9BYF1)
# Assay: SPR
# Human ACE2 with Fc tag (human), sequence (Q9BYF1 18-740): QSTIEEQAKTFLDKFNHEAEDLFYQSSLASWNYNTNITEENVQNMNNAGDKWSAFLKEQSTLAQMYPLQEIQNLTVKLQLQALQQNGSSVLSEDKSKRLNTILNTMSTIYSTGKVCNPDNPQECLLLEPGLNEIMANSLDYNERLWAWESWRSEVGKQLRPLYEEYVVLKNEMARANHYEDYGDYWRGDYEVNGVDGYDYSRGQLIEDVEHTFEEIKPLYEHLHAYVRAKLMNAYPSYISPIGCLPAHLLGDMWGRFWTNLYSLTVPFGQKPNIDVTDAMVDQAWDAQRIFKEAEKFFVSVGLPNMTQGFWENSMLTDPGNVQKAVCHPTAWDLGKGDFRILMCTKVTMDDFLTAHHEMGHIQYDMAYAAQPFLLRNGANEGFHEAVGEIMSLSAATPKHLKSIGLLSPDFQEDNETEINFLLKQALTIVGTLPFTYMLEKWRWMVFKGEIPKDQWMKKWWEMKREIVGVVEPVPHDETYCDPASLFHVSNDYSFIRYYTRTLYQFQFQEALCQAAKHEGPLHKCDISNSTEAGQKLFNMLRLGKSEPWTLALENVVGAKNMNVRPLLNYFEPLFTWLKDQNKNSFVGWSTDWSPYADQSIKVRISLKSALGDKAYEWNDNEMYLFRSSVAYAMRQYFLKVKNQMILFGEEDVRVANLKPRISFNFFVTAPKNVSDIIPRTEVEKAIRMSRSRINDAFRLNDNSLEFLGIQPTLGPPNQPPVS
substance,measurement,value
WT RBD,Kd,0.016 µM
same,koff,0.0051 s⁻¹
